This note sets out measurements from US7407934.

This test addresses amylin receptor (rat basal forebrain membranes containing the nucleus accumbens and surrounding regions) (rat). Put plainly: competition with 125I-Bolton-Hunter rat amylin on rat basal forebrain membranes, filtration.

Positions of bridges follow the written chain, without caps; N, C: chain ends. No end group written: not given here.

On to KCNTATCATQRLANFLVHSSNNFGPILPSTNVGSNTY (peptide, from a related filing) [25,28Pro-h-Amylin], for which the IC50 was determined as 0.026 nM.

B1: 25Pro26Val28,29Pro-h-Amylin (peptide)
peptide: KCNTATCATQRLANFLVHSSNNFGPVLPPTNVGSNTY
modifications: 2,7-disulfide; made on methylbenzhydrylamine resin (C-terminal amide not printed in so many words)
Turning to B1, the IC50 worked out at 0.018 nM.
Take KDNTATKATQRLANFLVHSSNNFGAILSSTNVGSNTY (peptide, from a related filing, lactam 2-7; ends not checked) [2,7Cyclo-[2Asp,7Lys]-h-Amylin]: the IC50 turned out to be 0.31 nM.

B2: 18Arg25,28Pro-h-Amylin (peptide)
peptide: KCNTATCATQRLANFLVRSSNNFGPILPSTNVGSNTY
modifications: 2,7-disulfide; made on methylbenzhydrylamine resin (C-terminal amide not printed in so many words)
Turning to B2, the IC50 is 0.032 nM.

B3: 18Arg25,28,29Pro-h-Amylin (peptide)
peptide: KCNTATCATQRLANFLVRSSNNFGPILPPTNVGSNTY
modifications: 2,7-disulfide; made on methylbenzhydrylamine resin (C-terminal amide not printed in so many words)
B3 yielded an IC50 of 0.021 nM.
For CNTATCATQRLANFLVHSSNNFGPILPSTNVGSNTY (peptide, from a related filing) [des-1Lys25,28Pro-h-Amylin], the IC50 worked out at 0.085 nM.

B4: des-1Lys18Arg25,28Pro-h-Amylin (peptide)
peptide: CNTATCATQRLANFLVRSSNNFGPILPSTNVGSNTY
modifications: 2,7-disulfide; made on methylbenzhydrylamine resin (C-terminal amide not printed in so many words)
Molecule B4 gave an IC50 of 0.082 nM.

B5: des-1Lys18Arg25,28,29Pro-h-Amylin (peptide)
peptide: CNTATCATQRLANFLVRSSNNFGPILPPTNVGSNTY
modifications: 2,7-disulfide; made on methylbenzhydrylamine resin (C-terminal amide not printed in so many words)
The molecule B5 returned an IC50 of 0.021 nM.

B6: des-1Lys25,28,29Pro-h-Amylin (peptide)
peptide: CNTATCATQRLANFLVHSSNNFGPILPPTNVGSNTY
modifications: 2,7-disulfide; made on methylbenzhydrylamine resin (C-terminal amide not printed in so many words)
Take B6: the half-maximal inhibitory concentration (IC50) was found to be 0.014 nM.
